{
  "source": "paper PMC4650537",
  "about": "“Loss of Caspase-3 sensitizes colon cancer cells to genotoxic stress via RIP1-dependent necrosis” (Cell Death & Disease, 2015)",
  "biological_target": "T1, pro-caspase-8 (human (endogenous in HCT116), UniProt Q14790 1-479)",
  "T1 construct": "caspase-8, human, endogenous in HCT116 colon cancer cells; Precipitated with a caspase-8 antibody (IP-Cas-8); also called Cas-8; source: endogenous, HCT116 (WT or caspase-3 knockout) whole cell lysate",
  "T1 sequence (Q14790 whole entry)": "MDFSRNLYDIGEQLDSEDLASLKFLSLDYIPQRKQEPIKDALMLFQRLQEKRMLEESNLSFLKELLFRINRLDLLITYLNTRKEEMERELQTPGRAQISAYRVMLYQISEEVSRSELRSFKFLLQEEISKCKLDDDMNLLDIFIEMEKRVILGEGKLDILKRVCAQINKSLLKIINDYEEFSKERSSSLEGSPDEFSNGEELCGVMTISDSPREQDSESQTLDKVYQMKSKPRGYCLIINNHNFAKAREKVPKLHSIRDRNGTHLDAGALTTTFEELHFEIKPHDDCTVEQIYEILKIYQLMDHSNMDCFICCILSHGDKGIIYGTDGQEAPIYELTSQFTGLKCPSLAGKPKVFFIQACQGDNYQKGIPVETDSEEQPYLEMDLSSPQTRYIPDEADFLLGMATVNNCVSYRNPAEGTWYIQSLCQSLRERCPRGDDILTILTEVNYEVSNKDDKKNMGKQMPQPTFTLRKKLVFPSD",
  "test": "co-IP; IP with caspase-8 antibody (IP-Cas-8) from lysates of HCT116 WT or C3KO cells treated with DMSO or 5-FU (50 μg/ml) for 24 h; also with z-VAD (20 μM) and with or without glutathione (GSH, 10 μM); blots quantified (Supplementary Tables S2, S3)",
  "details": "partners not purified",
  "data": [
    {"binder": "receptor (TNFRSF)-interacting serine-threonine kinase 1 (natural protein, human (endogenous in HCT116), UniProt Q13546 1-671, looked up, also called RIP1; RIP; source: endogenous, HCT116 (WT or caspase-3 knockout) whole cell lysate) MQPDMSLNVIKMKSSDFLESAELDSGGFGKVSLCFHRTQGLMIMKTVYKGPNCIEHNEALLEEAKMMNRLRHSRVVKLLGVIIEEGKYSLVMEYMEKGNLMHVLKAEMSTPLSVKGRIILEIIEGMCYLHGKGVIHKDLKPENILVDNDFHIKIADLGLASFKMWSKLNNEEHNELREVDGTAKKNGGTLYYMAPEHLNDVNAKPTEKSDVYSFAVVLWAIFANKEPYENAICEQQLIMCIKSGNRPDVDDITEYCPREIISLMKLCWEANPEARPTFPGIEEKFRPFYLSQLEESVEEDVKSLKKEYSNENAVVKRMQSLQLDCVAVPSSRSNSATEQPGSLHSSQGLGMGPVEESWFAPSLEHPQEENEPSLQSKLQDEANYHLYGSRMDRQTKQQPRQNVAYNREEERRRRVSHDPFAQQRPYENFQNTEGKGTAYSSAASHGNAVHQPSGLTSQPQVLYQNNGLYSSHGFGTRPLDPGTAGPRVWYRPIPSHMPSLHNIPVPETNYLGNTPTMPFSSLPPTDESIKYTIYNSTGIQIGAYNYMEIGGTSSSLLDSTNTNFKEEPAAKYQAIFDNTTSLTDKHLDPIRENLGKHWKNCARKLGFTQSQIDEIDHDYERDGLKEKVYQMLQKWVMREGIKGATVGKLAQALHQCSRIDLLSSLIYVSQN", "values": [
      {"measurement": "quantified 5-FU-induced RIP1 in the complex (with z-VAD; RIP1 term of the FADD to RIP1 ratio)", "result": 7.3}
    ]},
    {"binder": "Fas (TNFRSF6)-associated via death domain (natural protein, human (endogenous in HCT116), UniProt Q13158 1-208, looked up, FADD, human, endogenous in HCT116 colon cancer cells; also called FADD; source: endogenous, HCT116 (WT or caspase-3 knockout) whole cell lysate) MDPFLVLLHSVSSSLSSSELTELKFLCLGRVGKRKLERVQSGLDLFSMLLEQNDLEPGHTELLRELLASLRRHDLLRRVDDFEAGAAAGAAPGEEDLCAAFNVICDNVGKDWRRLARQLKVSDTKIDSIEDRYPRNLTERVRESLRIWKNTEKENATVAHLVGALRSCQMNLVADLVQEVQQARDLQNRSGAMSPMSWNSDASTSEAS", "values": [
      {"measurement": "quantified 5-FU-induced FADD in the complex (C3KO cells, without z-VAD; FADD term of the FADD to RIP1 ratio)", "result": 1.82},
      {"measurement": "quantified 5-FU-induced FADD in the complex (with z-VAD; FADD term of the FADD to RIP1 ratio)", "result": 7.5}
    ]}
  ]
}
